In the supplement of paper PMC7125110:
± gives the standard error. For some assays here: Fewer inactive variants are shown than the library holds.

B1: glmS ribozyme (parent)
chain: AUAAAAGCGCCAGAACUACAGAAAUGUAGUUGACGAGGAGGAGGUUUAUCGAAUUUUCGGCGGAUGCCUCCAAA

What was measured:
Conditions in all cases: with glucosamine-6-phosphate
glucosamine-6-phosphate [1] = variants of: B1; assay: kcat; higher = faster cleavage; RNA array
Summary of the method: (§1)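 Weighted Michaelis–Menten fits across concentrations supplied kcat and KM, based on kobs from one- or two-exponential decay fits to normalised per-tile medians. The data came from barcoded ribozyme variants transcribed in situ by E. coli RNA polymerase on sequenced MiSeq chips and tracked at 37 °C by a hybridised Cy3 probe. Glucosamine-6-phosphate (40 μM to 10 mM) in HEPES/KCl/Mg(OAc)2 buffer was flowed in.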

glucosamine-6-phosphate [2] = variants of: B1; assay: self-cleavage kobs at 2500 uM GlcN6P; higher = faster cleavage; RNA array
Summary of the method: as §1

glucosamine-6-phosphate [3] = variants of: B1; assay: self-cleavage kobs at 640 uM GlcN6P; higher = faster cleavage; RNA array
Summary of the method: as §1

glucosamine-6-phosphate [4] = variants of: B1; assay: KM; higher = weaker cofactor use; RNA array
Summary of the method: as §1

glucosamine-6-phosphate [5] = variants of: B1; assay: self-cleavage kobs at 160 uM GlcN6P; higher = faster cleavage; RNA array
Summary of the method: as §1

glucosamine-6-phosphate [6] = variants of: B1; assay: self-cleavage kobs at 10000 uM GlcN6P; higher = faster cleavage; RNA array
Summary of the method: as §1

glucosamine-6-phosphate [7] = variants of: B1; assay: self-cleavage kobs at 40 uM GlcN6P; higher = faster cleavage; RNA array
Summary of the method: as §1

| Variant | kcat (glucosamine-6-phosphate [1]) | self-cleavage kobs at 2500 uM GlcN6P (glucosamine-6-phosphate [2]) | self-cleavage kobs at 640 uM GlcN6P (glucosamine-6-phosphate [3]) | KM (glucosamine-6-phosphate [4]) | self-cleavage kobs at 160 uM GlcN6P (glucosamine-6-phosphate [5]) | self-cleavage kobs at 10000 uM GlcN6P (glucosamine-6-phosphate [6]) | self-cleavage kobs at 40 uM GlcN6P (glucosamine-6-phosphate [7]) |
| --- | --- | --- | --- | --- | --- | --- | --- |
| AUAAAAGCGCCAGAACUACAGAAAUGUAGUUGACGAGGAGGAGGUUUAUCGAAUUUUUGGCGGACGCCUCCAAA [C58U U65C] | < 1e-05 s⁻¹ | < 1e-05 s⁻¹ | – | – | – | – | – |
| AUAAAAGCGCCAGAACUACAGAAAUGUAGUUGACGAGGAGGAGGUUUAUCGAAUUUUCUGCGGAGGCCUCCAAA [G59U U65G] | < 1e-05 s⁻¹ | – | < 1e-05 s⁻¹ | – | – | – | – |
| AUAAAAGCGCCAGAACUACAGAAAUGUAGUUGACGAGGAGGAGGUUUAUCGAAUUUUCGGCAGAUGCCGCCAAA [G62A U69G] | 3.25e-05 ± 8.9e-06 s⁻¹ | 3.47e-05 ± 1.6e-05 s⁻¹ | 3.57e-05 ± 1.7e-05 s⁻¹ | – | – | – | – |
| AUAAAAGCGCCAGAACUACAGAAAUGUAGUUGACGAGGAGGAGGUUUAUCGAAUUUUCGGCAGAUGCCACCAAA [G62A U69A] | 3.46e-05 ± 8.1e-06 s⁻¹ | – | – | – | – | – | – |
| AUAAAAGCGCCAGAACUACAGAAAUGUAGUUGACGAGGAGGAGGUUUAUCGAAUUUUAGGCGGAUGCCCCCAAA [C58A U69C] | 0.000112 ± 1.3e-05 s⁻¹ | 9.46e-05 ± 2.2e-05 s⁻¹ | 4.91e-05 ± 1e-05 s⁻¹ | 640 ± 220 µM | 3.58e-05 ± 1.2e-05 s⁻¹ | 0.000107 ± 1.5e-05 s⁻¹ | – |
| AUAAAAGCGCCAGAACUACAGAAAUGUAGUUGACGAGGAGGAGGUUUAUCGAAUUUUCGGAGGAUGUCUCCAAA [C61A C67U] | 4.47e-05 ± 1.3e-05 s⁻¹ | 4.8e-05 ± 9.3e-06 s⁻¹ | 6.41e-05 ± 1.4e-05 s⁻¹ | – | 2.79e-05 ± 1.1e-05 s⁻¹ | – | – |
| AUAAAAGCGCCAGAACUACAGAAAUGUAGUUGACGAGGAGGAGGUUUAUCGAAUUUUCGGUGGAUGACUCCAAA [C61U C67A] | 1.1e-05 ± 1.5e-06 s⁻¹ | – | – | – | – | – | – |
| AUAAAAGCGCCAGAACUACAGAAAUGUAGUUGACGAGGAGGAGGUUUAUCGAAUUUUCUGCGGAUGCCACCAAA [G59U U69A] | 1.61e-05 ± 5.1e-06 s⁻¹ | – | – | – | – | – | – |
| AUAAAAGCGCCAGAACUACAGAAAUGUAGUUGACGAGGAGGAGGUUUAUCGAAUUUUUGGCGGAUGCCUCUAAA [C58U C71U] | 8.62e-05 ± 5e-06 s⁻¹ | 3.66e-05 ± 7.1e-06 s⁻¹ | – | 3200 ± 560 µM | – | 6.56e-05 ± 6e-06 s⁻¹ | – |
| AUAAAAGCGCCAGAACUACAGAAAUGUAGUUGACGAGGAGGAGGUUUAUCGAAUUUUCGGUAGAUGCCUCCAAA [C61U G62A] | < 1e-05 s⁻¹ | – | < 1e-05 s⁻¹ | – | < 1e-05 s⁻¹ | < 1e-05 s⁻¹ | – |
| AUAAAAGCGCCAGAACUACAGAAAUGUAGUUGACGAGGAGGAGGUUUAUCGAAUUUUCGGAGGGUGCCUCCAAA [C61A A64G] | < 1e-05 s⁻¹ | – | – | – | – | – | < 1e-05 s⁻¹ |
| AUAAAAGCGCCAGAACUACAGAAAUGUAGUUGACGAGGAGGAGGUUUAUCGAAUUUUCGGGGGAUGGCUGCAAA [C61G C67G C70G] | < 1e-05 s⁻¹ | – | – | – | – | – | – |
| AUAAAAGCGCCAGAACUACAGAAAUGUAGUUGACGAGGAGGAGGUUUAUCGAAUUUUCGUCGGAUGAUUCCAAA [G60U C67A C68U] | < 1e-05 s⁻¹ | – | < 1e-05 s⁻¹ | – | – | < 1e-05 s⁻¹ | – |
| AUAAAAGCGCCAGAACUACAGAAAUGUAGUUGACGAGGAGGAGGUUUAUCGAAUUUUCGGCCGAUGCCACCAAA [G62C U69A] | 1.17e-05 ± 3.8e-06 s⁻¹ | – | – | – | – | – | – |
| AUAAAAGCGCCAGAACUACAGAAAUGUAGUUGACGAGGAGGAGGUUUAUCGAAUUUUUGGCGGAUGCCUGCAAA [C58U C70G] | 1.93e-05 ± 3.5e-06 s⁻¹ | 2.22e-05 ± 1e-05 s⁻¹ | 2.38e-05 ± 9.2e-06 s⁻¹ | – | – | – | – |
| AUAAAAGCGCCAGAACUACAGAAAUGUAGUUGACGAGGAGGAGGUUUAUCGAAUUUUAGGCGGAUGCCUACAAA [C58A C70A] | 4.48e-05 ± 1.6e-05 s⁻¹ | 6.58e-05 ± 1.4e-05 s⁻¹ | 5.32e-05 ± 1.4e-05 s⁻¹ | – | 3.09e-05 ± 1.1e-05 s⁻¹ | – | – |
| AUAAAAGCGCCAGAACUACAGAAAUGUAGUUGACGAGGAGGAGGUUUAUCGAAUUUUCUGCGGAUGCGUCCAAA [G59U C68G] | 2.57e-05 ± 4.8e-06 s⁻¹ | – | – | – | – | – | – |
| AUAAAAGCGCCAGAACUACAGAAAUGUAGUUGACGAGGAGGAGGUUUAUCGAAUUUUCAGCGGAUACCUCCAAA [G59A G66A] | 0.000247 ± 1.9e-05 s⁻¹ | – | – | – | – | – | – |
| AUAAAAGCGCCAGAACUACAGAAAUGUAGUUGACGAGGAGGAGGUUUAUCGAAUUUUGGGCGGAUGCCUCUAAA [C58G C71U] | 7.95e-05 ± 3.4e-06 s⁻¹ | 7.26e-05 ± 8.7e-06 s⁻¹ | 4.63e-05 ± 1.1e-05 s⁻¹ | 402 ± 99 µM | – | 7.36e-05 ± 9e-06 s⁻¹ | – |
| AUAAAAGCGCCAGAACUACAGAAAUGUAGUUGACGAGGAGGAGGUUUAUCGAAUUUUCGGAGGAUGCCGCCAAA [C61A U69G] | < 1e-05 s⁻¹ | – | – | – | – | – | < 1e-05 s⁻¹ |
| AUAAAAGCGCCAGAACUACAGAAAUGUAGUUGACGAGGAGGAGGUUUAUCGAAUUUUCUGCGGAUGUCUCCAAA [G59U C67U] | 2.54e-05 ± 5.9e-06 s⁻¹ | 3.07e-05 ± 7.5e-06 s⁻¹ | – | – | – | – | – |
| AUAAAAGCGCCAGAACUACAGAAAUGUAGUUGACGAGGAGGAGGUUUAUCGAAUUUUCGGAGGAUGCCUGCAAA [C61A C70G] | 1.68e-05 ± 3.8e-06 s⁻¹ | – | – | – | – | – | – |
| AUAAAAGCGCCAGAACUACAGAAAUGUAGUUGACGAGGAGGAGGUUUAUCGAAUUUUCGGAGGAUGCCUUCAAA [C61A C70U] | 1.28e-05 ± 2.9e-06 s⁻¹ | – | – | – | – | – | – |
| AUAAAAGCGCCAGAACUACAGAAAUGUAGUUGACGAGGAGGAGGUUUAUCGAAUUUUCGGAGGAUGCCUACAAA [C61A C70A] | < 1e-05 s⁻¹ | – | – | – | < 1e-05 s⁻¹ | – | < 1e-05 s⁻¹ |
| AUAAAAGCGCCAGAACUACAGAAAUGUAGUUGACGAGGAGGAGGUUUAUCGAAUUUUGGGCGGAUUCCUCCAAA [C58G G66U] | 1.05e-05 ± 2.2e-06 s⁻¹ | – | – | – | < 1e-05 s⁻¹ | – | – |
| AUAAAAGCGCCAGAACUACAGAAAUGUAGUUGACGAGGAGGAGGUUUAUCGAAUUUUCUGCGGAUGCCUCCAAA [G59U] | 5.77e-05 ± 1.4e-06 s⁻¹ | 4.03e-05 ± 1.3e-06 s⁻¹ | 1.83e-05 ± 1.7e-06 s⁻¹ | 1210 ± 130 µM | – | 5.11e-05 ± 9.9e-07 s⁻¹ | < 1e-05 s⁻¹ |
| AUAAAAGCGCCAGAACUACAGAAAUGUAGUUGACGAGGAGGAGGUUUAUCGAAUUUUCAGCGGAUGCCUCCAAA [G59A] | 8.71e-05 ± 2.2e-06 s⁻¹ | 5.42e-05 ± 1.8e-06 s⁻¹ | 2.2e-05 ± 1.9e-06 s⁻¹ | 1670 ± 170 µM | – | 7.42e-05 ± 1.2e-06 s⁻¹ | – |
| AUAAAAGCGCCAGAACUACAGAAAUGUAGUUGACGAGGAGGAGGUUUAUCGAAUUUUUGGGGGAUGCCUCCAAA [C58U C61G] | 3.19e-05 ± 9.4e-06 s⁻¹ | 2.9e-05 ± 1.3e-05 s⁻¹ | 5.03e-05 ± 1.4e-05 s⁻¹ | – | – | – | – |
